Experimental data published in publication doi:10.1101/2020.05.05.078014.

Target: T1, Rhed (RNA-binding heme domain of DGCR8), heme-bound (Homo sapiens, UniProt Q8WYQ5 285-478)
T1 sequence: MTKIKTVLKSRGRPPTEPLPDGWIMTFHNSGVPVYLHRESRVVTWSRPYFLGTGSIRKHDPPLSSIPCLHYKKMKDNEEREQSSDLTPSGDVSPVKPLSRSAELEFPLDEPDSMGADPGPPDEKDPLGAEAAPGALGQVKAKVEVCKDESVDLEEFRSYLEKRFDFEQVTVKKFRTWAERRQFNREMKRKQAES
Assay: EMSA

B1: pri-miR-340 apical stem-loop fragment (structured_RNA)
RNA: GGAGACUGAUUGUCAUAUGUCGUUUGUGGGAUCCGUCUCC
B1 showed a Kd of 3.5 µM.
